Test results reported in patent publication US20170334954A1.
Values belong to the substance of their own block, whether it stands above or below them.

What was measured:
[1] = biological target: human polyclonal IgG (Gammanorm) (human); test: column 10% breakthrough capacity, ligand on agarose beads, ligand content 7.0 mg/ml, 6 min residence time; before NaOH
[2] = biological target: human polyclonal IgG (Gammanorm) (human); test: column 10% breakthrough capacity, ligand content 7.0 mg/ml; 0.5 M NaOH; ratio to reference Zvar4
[3] = biological target: human polyclonal IgG (Gammanorm) (human); test: column 10% breakthrough capacity, ligand on agarose beads, ligand content […]; after 24 h in 0.5 M NaOH
[4] = biological target: human polyclonal IgG (Gammanorm) (human); test: column 10% breakthrough capacity, ligand on agarose beads, ligand content 7.0 mg/ml; after 24 h in 0.5 M NaOH
[5] = biological target: human polyclonal IgG (Gammanorm) (human); test: column 10% breakthrough capacity, ligand content […]; 0.5 M NaOH; ratio to reference Zvar4
[6] = biological target: human polyclonal IgG (Gammanorm) (human); test: column 10% breakthrough capacity, ligand on agarose beads, ligand content […], 6 min residence time; before NaOH
[7] = biological target: human polyclonal IgG (Gammanorm) (human); test: column 10% breakthrough capacity, ligand content […]; 1.0 M NaOH; ratio to reference Zvar4
[8] = biological target: human polyclonal IgG (Gammanorm) (human); test: column 10% breakthrough capacity, ligand on agarose beads, ligand content 7.2 mg/ml; after 24 h in 0.5 M NaOH
[9] = biological target: human polyclonal IgG (Gammanorm) (human); test: column 10% breakthrough capacity, ligand on agarose beads, ligand content 7.2 mg/ml, 6 min residence time; before NaOH
[10] = biological target: human polyclonal IgG (Gammanorm) (human); test: column 10% breakthrough capacity, ligand on agarose beads, ligand content […]; after six 4 h cycles in 1.0 M NaOH
[11] = biological target: human polyclonal IgG (Gammanorm) (human); test: column 10% breakthrough capacity, ligand on agarose beads, ligand content […], 6 min residence time; before NaOH; remark: listed apart in the source
[12] = biological target: human polyclonal IgG (Gammanorm) (human); test: column 10% breakthrough capacity, ligand content 7.2 mg/ml; 0.5 M NaOH; ratio to reference Zvar4
[13] = biological target: human polyclonal IgG (Gammanorm) (human); test: column 10% breakthrough capacity, ligand on agarose beads, ligand content 9.7 mg/ml, 6 min residence time; before NaOH
[14] = biological target: human polyclonal IgG (Gammanorm) (human); test: column 10% breakthrough capacity, ligand content 9.7 mg/ml; 1.0 M NaOH; ratio to reference Zvar4
[15] = biological target: human polyclonal IgG (Gammanorm) (human); test: column 10% breakthrough capacity, ligand on agarose beads, ligand content 9.7 mg/ml; after six 4 h cycles in 1.0 M NaOH
[16] = biological target: human polyclonal IgG (Gammanorm) (human); test: column 10% breakthrough capacity, ligand content 9.7 mg/ml; 0.5 M NaOH; ratio to reference Zvar4
[17] = biological target: human polyclonal IgG (Gammanorm) (human); test: column 10% breakthrough capacity, ligand on agarose beads, ligand content 9.7 mg/ml, 6 min residence time; before NaOH; remark: listed apart in the source
[18] = biological target: human polyclonal IgG (Gammanorm) (human); test: column 10% breakthrough capacity, ligand on agarose beads, ligand content 9.7 mg/ml; after 24 h in 0.5 M NaOH
[19] = biological target: human polyclonal IgG (Gammanorm) (human); test: column 10% breakthrough capacity, ligand on agarose beads, ligand content 10.8 mg/ml; after 24 h in 0.5 M NaOH
[20] = biological target: human polyclonal IgG (Gammanorm) (human); test: column 10% breakthrough capacity, ligand on agarose beads, ligand content 10.8 mg/ml, 6 min residence time; before NaOH
[21] = biological target: human polyclonal IgG (Gammanorm) (human); test: column 10% breakthrough capacity, ligand content 10.8 mg/ml; 0.5 M NaOH; ratio to reference Zvar4

- Initial IgG capacity Qb10 [1]: 49.1 mg/mL
- Capacity retention relative to ref. after six 4 h cycles [2]: 1.5
- Remaining IgG capacity Qb10 after six 4 h cycles [3]: 46.2 mg/mL
- Remaining IgG capacity after six 4 h cycles (%) [3]: 93%
- Remaining IgG capacity Qb10 after six 4 h cycles [4]: 44.1 mg/mL
- Remaining IgG capacity after six 4 h cycles (%) [4]: 90%
- Capacity retention relative to ref. after six 4 h cycles [5]: 1.31
- Initial IgG capacity Qb10 [6]: 50 mg/mL
Substance: Zvar(Q9A, N11E, N28A, N43A)4 with an additional N-terminal cysteine (agarose bead ligand) (designed binder)

- Capacity retention relative to ref. after six 4 h cycles [7]: 1.67
- Remaining IgG capacity Qb10 after six 4 h cycles [8]: 44.2 mg/mL
- Remaining IgG capacity after six 4 h cycles (%) [8]: 90%
- Remaining IgG capacity Qb10 after six 4 h cycles [3]: 53.6 mg/mL
- Remaining IgG capacity after six 4 h cycles (%) [3]: 95%
- Capacity retention relative to ref. after six 4 h cycles [5]: 1.34
- Initial IgG capacity Qb10 [9]: 49 mg/mL
- Initial IgG capacity Qb10 [6]: 56.3 mg/mL
- Remaining IgG capacity Qb10 after six 4 h cycles [10]: 56 mg/mL
- Remaining IgG capacity after six 4 h cycles (%) [10]: 93%
- Initial IgG capacity Qb10 [11]: 60.3 mg/mL
- Capacity retention relative to ref. after six 4 h cycles [12]: 1.5
Substance: Zvar(Q9A, N11E, Q40V, A42K, N43A, L44I)4 with an additional N-terminal cysteine (agarose bead ligand) (designed binder)

- Initial IgG capacity Qb10 [13]: 56.3 mg/mL
- Capacity retention relative to ref. after six 4 h cycles [14]: 1.44
- Remaining IgG capacity Qb10 after six 4 h cycles [15]: 48.1 mg/mL
- Remaining IgG capacity after six 4 h cycles (%) [15]: 77%
- Capacity retention relative to ref. after six 4 h cycles [16]: 1.53
- Initial IgG capacity Qb10 [17]: 62.1 mg/mL
- Remaining IgG capacity Qb10 after six 4 h cycles [18]: 52 mg/mL
- Remaining IgG capacity after six 4 h cycles (%) [18]: 92%
Substance: Zvar(N11K, H18K, S33K, D37E, A42R, N43A, L44I, K50R, L51Y)4 with an additional N-terminal cysteine (agarose bead ligand) (designed binder)

- Remaining IgG capacity Qb10 after six 4 h cycles [19]: 52.5 mg/mL
- Remaining IgG capacity after six 4 h cycles (%) [19]: 92%
- Initial IgG capacity Qb10 [20]: 56.9 mg/mL
- Capacity retention relative to ref. after six 4 h cycles [21]: 1.3
Substance: Zvar(Q9A, N11K, H18K, D37E, A42R)4 with an additional N-terminal cysteine (agarose bead ligand) (designed binder)
